Results: the nanobody polyreactivity screen of Harvey et al. (2022)

Assay: yeast display, Sf9 membrane polyspecificity reagent, FACS + sequencing; frameworks hold sequencing errors
In short: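 Nanobodies came from a synthetic yeast display library in Saccharomyces cerevisiae BJ5465, induced with galactose for 36–48 hours and stained for 1 hour at 4 °C with 10% biotinylated, detergent-solubilized Sf9 membrane reagent. Cells were enriched on streptavidin microbeads and then FACS-sorted, with low and high (top ~1%) gates set on anti-HA fluorescence for expression and streptavidin fluorescence for reagent binding. Each polyreactivity label reflects the gate a clone came from. Genes were amplified by colony PCR, sequenced by MiSeq 2 × 250 and filtered by CDR length.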
In the case of “QVQLVESGGGLVQAGGSLRLSCAASGSTFPRNAMGWYRQAPGKERELVAAISYSGGRTYYADSVKGRFTISRDNAKNTVYLQMNSLKPEDTAVYYCAAQPYSLVRGKSYGYWGQGTQVTVSS”, the “polyreactivity (PSR sort gate)” value is reported as “high polyreactivity”. For “QVQLVESGGGLVQAGGSLRLSCAASGSTFPRNAMGWYRQAPGKERELVATITSSAGGTYYADSVKGRFTISRDNAKNTVYLQMNSLKPEDTAVYYCNADKNGFWYTYFGRERDYWGQGTQVTVSS”, the “polyreactivity (PSR sort gate)” value was “low polyreactivity”. For “QVQLVESGGGLVQAGGSLRLSCAASGSTFPSNAMGRYRQAPGKERELVAVISTSGVRTYYADSVKGRFTISRDNAKNTVYLQMNSLKPEDTAVYYCAARTRSYGGNGYRYPFDYWGQGTQVTVSS”, the “polyreactivity (PSR sort gate)” value was “high polyreactivity”. With “QVQLVESGGGLVQAGGSLRLSCAASGSTFPSYAMGCYRQAPAKERELVAAINSGGGTNYADSVKGRFTISRDNAKNTVYLQMNSLKPEDTAVYYCAKSRYDYTKTEGGYWGQGTQVTVSS” the “polyreactivity (PSR sort gate)” value was “low polyreactivity”. For “QVQLVESGGGLVQAGGSLRLSCAASGSTFPSYAMGWYRPAPGKERELVAAINSGGGTNYADSVKGRFTISRDNAKNTVYLQMNSLKPEDTAVYYCAKSRYDYTKTEGGYWGQGTQVTVSS”, the “polyreactivity (PSR sort gate)” value was “low polyreactivity”. With “QVQLVESGGGLVQAGGSLRLSCAASGSTFPTKAMGWYRQAPGKERELVATITTRRSTYYADSVKGRFTISRDNAKNTVYLQMNSLKPEDTAVYYCNAEYVYLIFSVYLYDYDYWGQGTQVTVSS” the “polyreactivity (PSR sort gate)” value was “low polyreactivity”. For “QVQLVESGGGLVQAGGSLRLSCAASGSTFPTNAMGWYRPAPGKERELVATFTTGGSTYYADSVKGRFTISRDNAKNTVYLQMNSLKPVDTAVYYCNAEYVYLIFSVYLYDYDYWGQVTQVTVSS”, the “polyreactivity (PSR sort gate)” value was “low polyreactivity”. For “QVQLVESGGGLVQAGGSLRLSCAASGSTFPTNAMGWYRQAPGKEREFVADITIRGGGTAYADSVKGRFTISRDNAKNTVYLQMTSLKPEDTAVYYCARSKSTELKRLLYDSWGQGTQVTVST”, the “polyreactivity (PSR sort gate)” value was “low polyreactivity”. For “QVQLVESGGGLVQAGGSLRLSCAASGSTFPTNAMGWYRQAPGKERELDAGITEGGSSTYYADSVKGRFTISRDYAKNTVYLQMNSLKPEDTAVYYCAADVLWYGPFWVRQDDYWGQGTQLTVSS”, the “polyreactivity (PSR sort gate)” value was “high polyreactivity”. For “QVQLVESGGGLVQAGGSLRLSCAASGSTFPTNAMGWYRQAPGKERELVAAISQRGDSTSYADSVKGRFTISRDNAKNTVYLQMNSLKPEDTAVYFCAVDAYSYYDSTWFWYDYWGQGTQVTVSS”, the “polyreactivity (PSR sort gate)” value was “high polyreactivity”. With “QVQLVESGGGLVQAGGSLRLSCAASGSTFPTYAMGWYRQAPGKERELVAAITRGGSTYYADSVKGRFTISRDNAKNTVYLQMHSRKPEDTSVYYCAVYEFLGQIGKRDYWGQGTQVTVSS” the “polyreactivity (PSR sort gate)” value was “low polyreactivity”. With “QVQLVESGGGLVQAGGSLRLSCAASGSTFPTYVMGWYRQAPGKERELVASINSDTGTYYADSVKGRFTISRDNAQNTVYLQMNSLKPEDTAVYYCNARQAYYFYPFEYDYWGQGTQVTVSS” the “polyreactivity (PSR sort gate)” value was “low polyreactivity”. In the case of “QVQLVESGGGLVQAGGSLRLSCAASGSTFPVYAMGWYRQAPGKERELVASISSGADTNYADSVKGRFTISRDNAKNTVYLQMNSLKPEDTAVYYCAATVPLRTIRPRSYGYWGQGTQVTVSS”, the “polyreactivity (PSR sort gate)” value is reported as “low polyreactivity”. In the case of “QVQLVESGGGLVQAGGSLRLSCAASGSTFPWNAMGWYRQAPGKERELVAAINYGNGSTYYADSVKGRFTISRDNAKNTVYLQMNSLKPEDTAVYYCNADYTGTRTDSVTPEYEYWGQGTQVTVSS”, the “polyreactivity (PSR sort gate)” value is reported as “low polyreactivity”. With “QVQLVESGGGLVQAGGSLRLSCAASGSTFPYNAMGWYRQAPGKERELVAAITGRGGSTYYADSVKGRFTISRDNAKNTVYLQMNSLKPEDTAVYYCGADFWYSYYYWGQGTQVTVSS” the “polyreactivity (PSR sort gate)” value was “high polyreactivity”. With “QVQLVESGGGLVQAGGSLRLSCAASGSTFPYYAMGWYRQAPGKERELVAAISRGDSTNYADSVKGRFTISRDNAKNTFYLQMNSLKTEDTAVYYCAARLQYRRTSVKYYYWGQGTQVTVSS” the “polyreactivity (PSR sort gate)” value was “high polyreactivity”. In the case of “QVQLVESGGGLVQAGGSLRLSCAASGSTFPYYAMGWYRQAPGKERELVAAISWRGTRTYYADSVKGRFTISRDNAKNTVYLQMNSLKPEDTAVYYCNAYHTPEYQEGGYYWGQGTQVTVSS”, the “polyreactivity (PSR sort gate)” value is reported as “high polyreactivity”. In the case of “QVQLVESGGGLVQAGGSLRLSCAASGSTFPYYAMGWYRQAPGKERELVASIRKRGGGTYYADSVKGRFTISRDNAKNTVYLQMNSLKPEDTAVYYCAVRVYQFRYTGYDYWGQGTQVTVSS”, the “polyreactivity (PSR sort gate)” value is reported as “high polyreactivity”. For “QVQLVESGGGLVQAGGSLRLSCAASGSTFPYYDMGWYRQAPGKERELVAAISWSGDSTYYADSVKGRFTISRDNAKNTVYLQMNRLKPEDTAVYYCAAYSDYWSYLSTDDYWGQGTQVTVSS”, the “polyreactivity (PSR sort gate)” value was “low polyreactivity”. With “QVQLVESGGGLVQAGGSLRLSCAASGSTFPYYVMGRYRQAPGKERELVAAITRSTGTTYYADSVKGRFTISRDNAKNTVYLQMNSLKPEDTAVYYCAARSSSSPRWYGGDYWGQGTQVTVSS” the “polyreactivity (PSR sort gate)” value was “low polyreactivity”. For “QVQLVESGGGLVQAGGSLRLSCAASGSTFQAKAMGWYRQAPGKERELVAAISWRGSSTYYADSVKGRFTISRDNAKNTVYLQMNSLKPEDPAVYYCAAASSGSYYRYEYWGQGTQVTVSS”, the “polyreactivity (PSR sort gate)” value was “high polyreactivity”. For “QVQLVESGGGLVQAGGSLRLSCAASGSTFQANAMGWYRQAPGKERELVAAISSRGGITYYADSVKGRFTISRDNAKNTVYLQMNSLKPEYTAVYYSNALPRCTYRQGLGVRLYYWGQGTQVTVSS”, the “polyreactivity (PSR sort gate)” value was “high polyreactivity”. With “QVQLVESGGGLVQAGGSLRLSCAASGSTFQFYAMGWYRQAPGKEREFVAAITTRSGSTYYADSVKGRFTISRDTAKNTVYLQMNSQKPEDTAVYYCAAYIYGHSSDSVRYEYWGQGTQVTVSS” the “polyreactivity (PSR sort gate)” value was “low polyreactivity”. In the case of “QVQLVESGGGLVQAGGSLRLSCAASGSTFQGKAMGWYRQAPGKERELVATINNDGSTYYADSVKGRFTISRDNAKNTVYLQMNSLKPEDTAVYYCAADVHRVVLEYDYWGQGTQVTVSS”, the “polyreactivity (PSR sort gate)” value is reported as “low polyreactivity”. With “QVQLVESGGGLVQAGGSLRLSCAASGSTFQGNAMGWYRQAPGKERELVAAISTSGGRTRYADSVKGRFTISRDKAKNTVYLQMNSLKPEDTAVYHCATTYWYGKRPKMYYWGQGTQVTVSS” the “polyreactivity (PSR sort gate)” value was “high polyreactivity”. With “QVQLVESGGGLVQAGGSLRLSCAASGSTFQHYAMGWYRQAPGKERELVAAITNTGGSTYYADSVKGRFTISRDNAKNTVDLQMNSLKPEDTAVYYCATVGRRYGYPGDYWGQGTQVTVSS” the “polyreactivity (PSR sort gate)” value was “low polyreactivity”. With “QVQLVESGGGLVQAGGSLRLSCAASGSTFQINAMGWYRQAPGKEREFVAAITVSSGSTYYADSVKGRFTISRDNAKNTVYLQMNSLKPEDTAVYYCAADYWGQGTQVTVSS” the “polyreactivity (PSR sort gate)” value was “low polyreactivity”. In the case of “QVQLVESGGGLVQAGGSLRLSCAASGSTFQLNAMGWYRQAPGKERELVAAISVRGGSTYYADSVKGRFTISRDTAKNTVYLQMHSLKPEETAVYYCATDSLYFLFAGDAVVRRPSYYWGQGTQVTVSS”, the “polyreactivity (PSR sort gate)” value is reported as “high polyreactivity”. For “QVQLVESGGGLVQAGGSLRLSCAASGSTFQPYAMGWYIQAPGKEREFVATISGSAGSTYYADSVKGRFKISRDNAKNTVYLQMNSLKPEDTAVYYCNADSGWFGYDYWGQGTQVTVSS”, the “polyreactivity (PSR sort gate)” value was “low polyreactivity”. For “QVQLVESGGGLVQAGGSLRLSCAASGSTFQPYAMGWYRQAPGKEREFVATISGSAGSTYYADSVKGRFKISRDNAKNTVYLQMNSLKPEDTGVYYCNARPARKSLDYDYWGQGTQVTVSS”, the “polyreactivity (PSR sort gate)” value was “low polyreactivity”. For “QVQLVESGGGLVQAGGSLRLSCAASGSTFQPYAMGWYRQSPGKEREFVATISGSAGSTYYADSVKGRFKISRDNAKNTVYLQMNSLKPEDTAVYYCNADSGWFGYDYWGQGTQVTVSS”, the “polyreactivity (PSR sort gate)” value was “low polyreactivity”. In the case of “QVQLVESGGGLVQAGGSLRLSCAASGSTFQRNAMGWYRQAPGKERELVAAITSRGGSTYYADSVKGRFTISRDNAKNTVSLQMNSLNPEDTGVYYCAALTWARSRNGTYDYWGPGTQVTVSS”, the “polyreactivity (PSR sort gate)” value is reported as “high polyreactivity”. With “QVQLVESGGGLVQAGGSLRLSCAASGSTFQRYAMGWYRQAPGKERELVAAITWSGGSTKYADSVKGRFTISRDNAKNTVYLQMNSLKPEDTAVYYCAATPGRGGGYNYWGQGTQVTVSS” the “polyreactivity (PSR sort gate)” value was “low polyreactivity”. In the case of “QVQLVESGGGLVQAGGSLRLSCAASGSTFQSYAMGWYRQAPGKERELVAAISTSDTDRTYYADSVKGRFTISRDNAKNTVYLQMNSLKPEDTAVYYCNADGYSHGDWYGYWGQGTQVTVSS”, the “polyreactivity (PSR sort gate)” value is reported as “low polyreactivity”. In the case of “QVQLVESGGGLVQAGGSLRLSCAASGSTFQTYAMGWYRQAPGKERELVAAITSGGSTNYADSVKGRFTISRDNAKNTVYLQMNSLKPEDTAVYYCAVRQIYQTSDHRLQYDYWGQGTQVTVSS”, the “polyreactivity (PSR sort gate)” value is reported as “low polyreactivity”. For “QVQLVESGGGLVQAGGSLRLSCAASGSTFQTYAMGWYRQPPGKERELVAALNWRSGSTYYADSVKGRFTISRDNATNTVYLLMTSVKPEDTAVYDCARRSTGYTFDVSSMDYWGQGTQVTLSS”, the “polyreactivity (PSR sort gate)” value was “low polyreactivity”. In the case of “QVQLVESGGGLVQAGGSLRLSCAASGSTFQWNTMGWYRQAPGKERELVARITGGGGSTYYADSVKGRFTISRDNAKNTVYLQMNSLKPEDTAVYYCNAAIFGRYEYWGQGTQVTVSS”, the “polyreactivity (PSR sort gate)” value is reported as “low polyreactivity”. In the case of “QVQLVESGGGLVQAGGSLRLSCAASGSTFQWYTMGWYRQAPGKERECVAAISRSGGRTYYADSVKGRFTISRDNAKNTVYLQMNSLKPVDTAVYYCAKYYYLYWSSQRDYWGQGTQVTVSS”, the “polyreactivity (PSR sort gate)” value is reported as “high polyreactivity”. For “QVQLVESGGGLVQAGGSLRLSCAASGSTFQWYVMGWYRQAPGKERELVAAITWSGGSTYYADSVKGRFTISRDNAKNTVYLQMNSLKPEDTAVYYCNAVFWIWNAGYDYWGQGTQVTVSS”, the “polyreactivity (PSR sort gate)” value was “low polyreactivity”. For “QVQLVESGGGLVQAGGSLRLSCAASGSTFQYNAMGWYRQAPGKERELVAVISGSGSRTYYADSVKGRFTISRDNSKNTVYLQMNSLKPEDTAVYYCAKQRGGQPRSSTYYYWGQGTQVTVSS”, the “polyreactivity (PSR sort gate)” value was “high polyreactivity”. In the case of “QVQLVESGGGLVQAGGSLRLSCAASGSTFQYNAMVGYIQAPGKERELVAAISRGSSTKYADSVKGRFTISRDNAKNTVYLQMNSLKPEDTAVYYCAVDTRPSHRTRAYYYWGQGTQVTVSS”, the “polyreactivity (PSR sort gate)” value is reported as “high polyreactivity”. In the case of “QVQLVESGGGLVQAGGSLRLSCAASGSTFQYNDMGWYRQAPGKERELVAAISSSGGSTSYADSVKGRFTISRDNAKNTVYLQMNSLKPEDTAVYYCAASYPGYHLYRDDYWGQGTQVTVSS”, the “polyreactivity (PSR sort gate)” value is reported as “low polyreactivity”. With “QVQLVESGGGLVQAGGSLRLSCAASGSTFRAYAMGWYRQAPGKERELVAAISKRGGSTYYADSVKGRFTISRDNAKYTVYLQMNSLKPEDTAVYYCNAATRSPFDYWGQGTQVTVSS” the “polyreactivity (PSR sort gate)” value was “high polyreactivity”.
